# Measured values as given in patent publication US20240317859A1 (published 2024).
# Where a chain is given by its changes, count along the chain named.
# T1: FcγRIIB/C (CD32b/c) (FcγRIIB) (R&D Systems) (UniProt P31994 46-217)
# T1 chain: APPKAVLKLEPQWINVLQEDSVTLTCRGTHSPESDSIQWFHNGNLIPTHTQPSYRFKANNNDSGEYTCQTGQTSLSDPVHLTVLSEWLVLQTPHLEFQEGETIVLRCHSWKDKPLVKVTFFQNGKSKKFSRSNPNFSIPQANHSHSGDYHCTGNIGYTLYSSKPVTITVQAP
# B1: X2-K HM242-D3 (antibody)
# chain 1: QVQLVQSGPEVKKPGASVKVVCKASGYTFTSYYIQWVRQVPGQGLEWMGWIYPGDGTTKYNEKFKGRVTMTIDTSTSTAYMELRSLRSDDTAVYYCASYYGSYFDYWGQGTLVTVSSASTKGPSVFPLAPSSKSTSGGTAALGCLVKDYFPEPVTVSWNSGALTSGVHTFPAVLQSSGLYSLSSVVTVPSSSLGTQTYICNVNHKPSNTKVDKKVEPKSCDKTHTCPPCPAPELLDGPSVFLFPPKPKDTLMISRTPEVTCVVVDVSDEDPEVKFNWYVDGVEVHNAKTKPREEQYNSTYRVVSVLTVLHQDWLNGKEYKCAVSNKALPAPIEKTISKAKGQPREPQVYTLPPSRDELTKNQVSLTCLVKGFYPSDIAVEWESNGQPENNYKTTPPVLDSDGSFFLYSKLTVDKSRWQQGNVFSCSVMHEALHNHYTQKSLSLSPGK
# chain 2: not shown
# B2: X4-K HM242-C3 (antibody)
# chain 1: B1 chain 1 with R38K, V40R, M48I, T74K, S77R, D236G, S239D, L328Y, I332E
# chain 2: not shown
# B3: X3-KS HM242-C3 (antibody)
# chain 1: B1 chain 1 with R38K, V40R, M48I, T74K, S77R, D236G, S239D, S267G
# chain 2: not shown
# B4: X4-K HM242-D3 (antibody)
# chain 1: B1 chain 1 with D236G, S239D, L328Y, I332E
# chain 2: not shown
# B5: X2-K HM242-C3 (antibody)
# chain 1: B1 chain 1 with R38K, V40R, M48I, T74K, S77R
# chain 2: not shown
# B6: X3-KS HM242-D3 (antibody)
# chain 1: B1 chain 1 with D236G, S239D, S267G
# chain 2: not shown
# B7: X4-K HM297-H5 (antibody)
# chain 1: QVQLVQSGPEVKKPGASVKIPCKASGYTFTDYNVDWVRQVPGQGLEWMGDIDPNNGGTIYNQKFKDRVTMTVDKSTRTAYMELRSLRSDDTAVYYCARWRGAMDYWGQGTLVTVSSASTKGPSVFPLAPSSKSTSGGTAALGCLVKDYFPEPVTVSWNSGALTSGVHTFPAVLQSSGLYSLSSVVTVPSSSLGTQTYICNVNHKPSNTKVDKKVEPKSCDKTHTCPPCPAPELLGGPDVFLFPPKPKDTLMISRTPEVTCVVVDVSDEDPEVKFNWYVDGVEVHNAKTKPREEQYNSTYRVVSVLTVLHQDWLNGKEYKCAVSNKAYPAPEEKTISKAKGQPREPQVYTLPPSRDELTKNQVSLTCLVKGFYPSDIAVEWESNGQPENNYKTTPPVLDSDGSFFLYSKLTVDKSRWQQGNVFSCSVMHEALHNHYTQKSLSLSPGK
# chain 2: DIQMTQSPSSLSASVGDRVTITCRASQDIDNYLKWYQQKPDGTVKLLIYDTSRLHSGVPSRFSGSGSGTDYTLTISSLKQEDFATYYCQQGYTLPWTFGQGTKLEIKRTVAAPSVFIFPPSDEQLKSGTASVVCLLNNFYPREAKVQWKVDNALQSGNSQESVTEQDSKDSTYSLSSTLTLSKADYEKHKVYACEVTHQGLSSPVTKSFNRGEC
# B8: X2-K HM297-H5 (antibody)
# chain 1: B7 chain 1 with G235D, D238S, Y327L, E331I
# chain 2: B7 chain 2
# B9: X3-KS HM297-H5 (antibody)
# chain 1: B7 chain 1 with S266G, Y327L, E331I
# chain 2: B7 chain 2
# B10: X2-K HM268-K8 (antibody)
# chain 1: QVQLVQSGPEVKKPGASVKVVCKTSGYTFTSYYIQWLKQRPGQGLEWIGWIYFGDASTKYNEKFKGRVTMTADKSTSTAYMELRSLRSDDTAVYYCASYYGSYFDYWGQGTTVTVSSASTKGPSVFPLAPSSKSTSGGTAALGCLVKDYFPEPVTVSWNSGALTSGVHTFPAVLQSSGLYSLSSVVTVPSSSLGTQTYICNVNHKPSNTKVDKKVEPKSCDKTHTCPPCPAPELLDGPSVFLFPPKPKDTLMISRTPEVTCVVVDVSDEDPEVKFNWYVDGVEVHNAKTKPREEQYNSTYRVVSVLTVLHQDWLNGKEYKCAVSNKALPAPIEKTISKAKGQPREPQVYTLPPSRDELTKNQVSLTCLVKGFYPSDIAVEWESNGQPENNYKTTPPVLDSDGSFFLYSKLTVDKSRWQQGNVFSCSVMHEALHNHYTQKSLSLSPGK
# chain 2: B7 chain 2 with D30S, K34N, D50S, K79Q, Q80P, Y92S, W96F
# B11: X3-KS HM268-K8 (antibody)
# chain 1: B10 chain 1 with D236G, S239D, S267G
# chain 2: B7 chain 2 with D30S, K34N, D50S, K79Q, Q80P, Y92S, W96F
# B12: X4-K HM268-K8 (antibody)
# chain 1: B10 chain 1 with D236G, S239D, L328Y, I332E
# chain 2: B7 chain 2 with D30S, K34N, D50S, K79Q, Q80P, Y92S, W96F
# Target: T1, FcγRIIB/C (CD32b/c) (FcγRIIB) (R&D …)
# Assay: SPR
row,Binder,Kd
1,B1,1250 nM
2,B2,606 nM
3,B3,1660 nM
4,B4,957 nM
5,B5,1210 nM
6,B6,2740 nM
7,B7,1250 nM
8,B8,1290 nM
9,B9,1430 nM
10,B10,1650 nM
11,B11,2540 nM
12,B12,1050 nM

# Target: Fc gamma RIIIA/CD16a, CF (FcγRIIIA(V158)) (R&D Systems)
# Assay: SPR
# Chain of Fc gamma RIIIA/CD16a, CF (FcγRIIIA(V158)) (R&D Systems) (chain, as listed by the source): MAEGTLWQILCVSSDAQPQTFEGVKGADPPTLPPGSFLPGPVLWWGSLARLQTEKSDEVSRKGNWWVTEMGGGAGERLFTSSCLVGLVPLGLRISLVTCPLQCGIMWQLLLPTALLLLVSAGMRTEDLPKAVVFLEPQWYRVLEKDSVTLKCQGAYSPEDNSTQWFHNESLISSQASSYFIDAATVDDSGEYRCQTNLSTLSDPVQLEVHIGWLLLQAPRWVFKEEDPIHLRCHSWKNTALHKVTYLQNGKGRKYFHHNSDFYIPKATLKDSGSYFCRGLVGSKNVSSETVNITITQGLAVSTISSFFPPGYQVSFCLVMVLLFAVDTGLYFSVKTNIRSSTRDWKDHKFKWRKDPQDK
row,Binder,Kd
1,B1,4270 nM
2,B2,143 nM
3,B4,244 nM
4,B7,3030 nM
5,B8,5220 nM
6,B10,7560 nM
7,B12,236 nM
